Series [1] has as its system Met expression in neutrophils. The series can be described thus: Q-PCR / Western blot of Met expression in mouse neutrophils. The class given is cell-based. The settings on record: naïve mouse neutrophils. On the procedure: Western blot: 2×10^6 bone marrow neutrophils from WT mice were stimulated with TCM, CCM, 100 ng/ml of murine TNF-α (or mock medium 0% FBS or 10% FBS as control) for 20 hours at 37° C. For the co-culture with HUVEC, a monolayer of HUVEC was stimulated for 4 hours with 5 ng/ml IL-1 at 37° C., and washed before neutrophil seeding. After 20 hours of stimulation, neutrophils were collected using Cell Dissociation Buffer, Enzyme Free, PBS-Based (Gibco). Cells were washed in PBS, lysed in 15 μl of a protease inhibitor mixture and incubated for 15 minutes on ice. The stock solution was obtained by dissolving one tablet of Complete Mini protease inhibitor mixture (CI, Roche) in 5 ml of PBS with 2 mM diisopropyl fluorophosphate (DFP; Acros Organics, Morris Plains, N.J.). After addition of an equal amount of 2×SDS sample buffer supplemented with 4% 2-mercaptoethanol, the lysates were boiled for 15 minutes and kept at -80° C. until use. 30×10^6 neutrophils purified from healthy volunteer blood and stimulated with A549-CM, 100 ng/ml of human TNF-α, 50 ng/ml LPS (or mock medium 10% FBS as control) for 20 hours. Cells were incubated with DFP 2.7 mM for 15' at 4° C., collected and washed in PBS, DFP 2.7 mM, CI 1X, and lysed in hot […] buffer (25% SDS 10%, 25% Tris-HCl pH 6.8) at 96° C. for 10'. Cell lysates were sonicated, cleared and quantified. 6× loading buffer was added before loading on the gel. The following antibodies were used: mouse anti-mouse Met (clone 3D4; Invitrogen), mouse anti-mouse β-actin (Santa Cruz), rabbit anti-human Met (clone D1C2-XP; Cell Signaling), HRP-conjugated anti-beta-tubulin (Abcam). Signal was visualized by Enhanced Chemiluminescent Reagents (ECL, Invitrogen) or West Femto by Thermo Scientific according to the manufacturer's instructions. Quantitative RT-PCR: for mRNA analysis, 1×10^5 or 3×10^5 mouse or human neutrophils, respectively, were incubated in normoxic (21% oxygen) or hypoxic condition (1% oxygen) or stimulated with TCM (plus 50 μg/ml Enbrel or human IgG when indicated), CCM, A549-CM, 100 ng/ml of murine or human TNF-α, 50 ng/ml LPS, or mock medium in 96-multiwell for 4 hours at 37° C. 2×10^5 HUVEC were seeded in 24-multiwell coated with 0.1% gelatin and stimulated with 5 ng/ml IL-1 in DMEM 10% FBS for 4 hours at 37° C. Cells were washed in PBS, collected in RLT buffer (QIAGEN®) and kept at -80° C. RNA was extracted with an RNase Micro kit (QIAGEN®) according to manufacturer's instructions. Reverse transcription to cDNA was performed with the SuperScript III Reverse Transcriptase (Invitrogen) according to manufacturer's protocol. […]
A general note: A western blot detects proteins with antibodies after separation by electrophoresis.

Series [2] deals with LLC cancer cells. The series can be described thus: Cytotoxicity assay: LLC cancer cell killing by neutrophils. The class given is cell-based, mouse. On the procedure: Cytotoxicity assay: LLC-shMet were transduced with a luciferase-expressing lentivirus (EXhLUC-Lvl 14 from GeneCopoeia); 104 LLC were seeded in DMEM 10% FBS in 96-multiwell. After 4 h, 0.2×10^6 neutrophils purified from the blood of LLC-tumor bearing mice or sorted from LLC-tumors were co-cultured with the LLC in DMEM 2% FBS for 4 hours at 37° C., with or without 100 ng/ml HGF or 1 mM L-NMMA (SIGMA). After washing, adherent cells were lysate in 0.2% Tryton 1 mM DTT.

For series [3], the system named is neutrophils. The series can be described thus: Transmigration and migration assay of neutrophils. The series is classed as cell-based, mouse. On the procedure:
Transmigration and Migration Assay: For the transmigration assay, 2×10^5 HUVEC were seeded on 3 μm polycarbonate membrane (Transwell; Costar) previously coated with 0.1% gelatin in M199 20% FBS. After 12 h, HUVEC were stimulated for 4 hours at 37° C. in DMEM 10% FBS with 5 ng/ml IL-1 and then washed. 5×105 WBC were seeded on top of the endothelial monolayer, while mock medium (+/− decoy Met), TCM (+/− decoy Met) or 50 ng/ml murine HGF was added in the bottom. After 2 hours at 37° C., transmigrated cells were collected from the lower chambers and from the bottom part of the filter with cold PBS 0.5% EDTA. Cells were stained and Ly6G+ cells quantified as above. In the migration assays WBC were seeded directly on top of 3 μm polycarbonate porous membranes.

Series [4] relates to Ly6G+ cells. The series can be described thus: Air pouch assay: neutrophil exudation into subcutaneous air pouches. The note with it: 200 ng/mouse, 4 hours; for recruitment of Ly6G+ cells into air pouch: WT→WT mice. The class given is in vivo. On the procedure:
Air Pouch Assay: to create subcutaneous air pouches, bone marrow transplanted WT and KO mice were injected with 3 ml of sterile air by dorsal subcutaneous injection with a butterfly 23G needle on day 0 and on day 3. On day 6, 200 ng/mouse of CXCL1 or murine HGF in 0.5 ml PBS-Heparin or PBS-Heparin as control, were injected in the dorsal camera created with the previous injection. After 4 hours, inflammatory cells were harvested by washing the pouch with 8 ml of PBS. Cells were stained with Ly6G-APC, washed and resuspended in PBS-BSA 0.1% with unlabeled counting beads and quantified with FACS Canto II (BD Bioscience).

In series [5] the test system is neutrophils. The series can be described thus: Adhesion assay: neutrophil adhesion to HUVEC. The series is classed as cell-based, mouse. The method, then:
Adhesion Assay: 4×10^4 HUVEC were seeded in M199 20% FBS in 96-multiwell previously coated with 0.1% gelatin. After 12 h, HUVEC were stimulated with 5 ng/ml IL-1 in DMEM 10% FBS at 37° C. After 4 hours the endothelial monolayer was thoroughly washed and 2.5×105 WBC were seeded on top, with or without murine HGF (50 ng/ml). After 15′ non-adherent cells were washed out whereas adherent cells were detached by using Cell Dissociation Buffer, Enzyme Free, PBS-Based (Gibco). Cells were stained with Ly6G-APC, washed and resuspended in PBS-BSA 0.1% with unlabeled counting beads (BD Bioscience) and quantified with FACS Canto II (BD Bioscience).

Series [6] deals with β2-integrin. The series can be described thus: Soluble ICAM-1 binding assay and co-immunoprecipitation of active β2-integrin. The series is classed as cell-based.
Series [7] relates to neutrophils. The series can be described thus: Nitric oxide measurement by FACS (DAF-FM) in neutrophils. The note with it: HGF 100 ng/ml. The series is classed as cell-based, mouse. On the procedure:
Nitric oxide measurement by FACS: neutrophils isolated from the blood of WT or KO LLC tumor bearing mice were co-cultured for 4 hours with LLC shMet, washed, and resuspended in PBSHepes 20 mM, incubated for 10′ with 5 μM DAF-FM diacetate (Molecular probes) in the absence or presence of HGF (100 ng/ml) at 37° C., washed and analyzed by FACS.
A general note: In flow cytometry, cells or beads pass a laser one at a time.

TNF-a: the “upregulation of MET at RNA and protein levels” value in series [1] is reported as “able to upregulate MET”.
As for `CNC(=N)NCCC[C@H](N)C(=O)O` [L-NMMA, reference compound], the “HGF-induced cytotoxicity of neutrophils” value in series [2] (HGF 100 ng/ml plus 1 mM L-NMMA) is on record as “decreased HGF-induced cytotoxicity to the level of Met KO neutrophils”. In series [2] (neutrophils sorted from LLC tumors, 1 mM L-NMMA), the “cytotoxicity of intratumoral WT neutrophils against cancer cells” value is “decreased the cytotoxicity of WT neutrophils to the levels of KO neutrophils”.

B1: decoy MET: soluble HGF-trap consisting of the extracellular portion of MET (protein, UniProt P08581 25-932, looked up)
extracellular domain: ECKEALAKSEMNVNMKYQLPNFTAETPIQNVILHEHHIFLGATNYIYVLNEEDLQKVAEYKTGPVLEHPDCFPCQDCSSKANLSGGVWKDNINMALVVDTYYDDQLISCGSVNRGTCQRHVFPHNHTADIQSEVHCIFSPQIEEPSQCPDCVVSALGAKVLSSVKDRFINFFVGNTINSSYFPDHPLHSISVRRLKETKDGFMFLTDQSYIDVLPEFRDSYPIKYVHAFESNNFIYFLTVQRETLDAQTFHTRIIRFCSINSGLHSYMEMPLECILTEKRKKRSTKKEVFNILQAAYVSKPGAQLARQIGASLNDDILFGVFAQSKPDSAEPMDRSAMCAFPIKYVNDFFNKIVNKNNVRCLQHFYGPNHEHCFNRTLLRNSSGCEARRDEYRTEFTTALQRVDLFMGQFSEVLLTSISTFIKGDLTIANLGTSEGRFMQVVVSRSGPSTPHVNFLLDSHPVSPEVIVEHTLNQNGYTLVITGKKITKIPLNGLGCRHFQSCSQCLSAPPFVQCGWCHDKCVRSEECLSGTWTQQICLPAIYKVFPNSAPLEGGTRLTICGWDFGFRRNNKFDLKKTRVLLGNESCTLTLSESTMNTLKCTVGPAMNKHFNMSIIISNGHGTTQYSTFSYVDPVITSISPKYGPMAGGTLLTLTGNYLNSGNSRHISIGGKTCTLKSVSNSILECYTPAQTISTEFAVKLKIDLANRETSIFSYREDPIVYEIHPTKSFISGGSTITGVGKNLNSVSVPRMVINVHEAGRNFTVACQHRSNSEIICCTTPSLQQLNLQLPLKTKAFFMLDGILSKYFDLIYVHNPVFKPFEKPVMISMGNENVLEIKGNDIDPEAVKGEVLKVGNKSCENIHLHSEAVLCTVPNDLLKLNSELNIEWKQAISSTVLGKVIVQPDQNFT
modifications: extracellular domain
Consider B1, for which the “TCM-induced transendothelial migration of Met KO neutrophils” value in series [3] (Met KO neutrophils, TCM, decoy Met) is reported as “did not further impair the migration of Met KO neutrophils”. Moreover, the “TCM-promoted transendothelial migration of WT neutrophils” value in series [3] (WT neutrophils, TCM, decoy Met 0.5 ng/μl) is “abated this effect”.

B2: CXCL1: well-known neutrophil chemoattractant, positive control of neutrophil migration (protein, UniProt P12850 25-96, looked up)
Growth-regulated alpha protein: APIANELRCQCLQTMAGIHLKNIQSLKVLPSGPHCTQTEVIATLKNGREACLDPEAPLVQKIVQKMLKGVPK
Consider B2, for which, in series [4], the “recruitment of neutrophils into air pouch in KO→WT mice” value is “did not change” and the “recruitment of Ly6G+ cells into air pouch” value is listed as “equally good in recruiting Ly6G+ cells”.

B3: HGF: Hepatocyte Growth Factor, the ligand of the MET tyrosine kinase receptor (protein)
chain: QKKRRNTLHEFKKSAKTTLTKEDPLLKIKTKKVNSADECANRCIRNRGFTFTCKAFVFDKSRKRCYWYPFNSMSSGVKKGFGHEFDLYENKDYIRNCIIGKGGSYKGTVSITKSGIKCQPWNSMIPHEHSFLPSSYRGKDLQENYCRNPRGEEGGPWCFTSNPEVRYEVCDIPQCSEVECMTCNGESYRGPMDHTESGKTCQRWDQQTPHRHKFLPERYPDKGFDDNYCRNPDGKPRPWCYTLDPDTPWEYCAIKTCAHSAVNETDVPMETTECIQGQGEGYRGTSNTIWNGIPCQRWDSQYPHKHDITPENFKCKDLRENYCRNPDGAESPWCFTTDPNIRVGYCSQIPKCDVSSGQDCYRGNGKNYMGNLSKTRSGLTCSMWDKNMEDLHRHIFWEPDASKLNKNYCRNPDDDAHGPWCYTGNPLIPWDYCPISRCEGDTTPTIVNLDHPVISCAKTKQLRVVNGIPTQTTVGWMVSLKYRNKHICGGSLIKESWVLTARQCFPARNKDLKDYEAWLGIHDVHERGEEKRKQILNISQLVYGPEGSDLVLLKLARPAILDNFVSTIDLPSYGCTIPEKTTCSIYGWGYTGLINADGLLRVAHLYIMGNEKCSQHHQGKVTLNESELCAGAEKIGSGPCEGDYGGPLICEQHKMRMVLGVIVPGRGCAIPNRPGIFVRVAYYAKWIHKVILTYKL
Consider B3, for which the “adhesion of Met KO neutrophils to an activated endothelium” value in series [5] (Met KO neutrophils, HUVEC (IL-1)) is “did not modify the behavior of KO cells”. Besides, in series [5] (WT neutrophils, HUVEC (IL-1), HGF 50 ng/ml), the “increase of adhesion of WT neutrophils to an activated endothelium” value was determined as 48%. In addition, in series [5] (nonactivated ECs), the “neutrophil adhesion to nonactivated ECs” value was “not affected”. The “transendothelial migration of Met KO neutrophils” value in series [3] (Met KO neutrophils, inflamed-like endothelium) is on record as “completely lost this response to HGF”. For the same molecule, in series [3] (WT neutrophils, inflamed-like endothelium, HGF 50 ng/ml), the “transendothelial migration (chemotaxis) of WT neutrophils” value is “promoted their chemotaxis through an inflamed-like endothelium”. Also, in series [3] (no activated endothelium), the “migration of neutrophils through a naked porous membrane or a non-activated endothelium” value is given as “did not influence the migration of neutrophils”. Besides, in series [4], the “recruitment of neutrophils into air pouch in KO→WT mice” value is listed as “completely abolished” and the “recruitment of Ly6G+ cells into air pouch” value was “equally good in recruiting Ly6G+ cells”. Also, the “upregulation of MET at RNA and protein levels” value in series [1] is recorded as “not”. For the same molecule, the “percentage of granulocytes bound to ICAM-1” value in series [6] (soluble ICAM-1 binding assay) was “increases the percentage of granulocytes bound to ICAM-1”. The “active β2-integrin (immunoprecipitation)” value in series [6] (upon HGF stimulation) was “more active Iβ2-integrin”. Also, the “cytotoxicity of KO neutrophils” value in series [2] (Met KO circulating neutrophils with LLC, HGF 100 ng/ml) is given as “not”. Also, in series [2] (WT circulating neutrophils with LLC, HGF 100 ng/ml), the “cytotoxicity of WT neutrophils” value is given as “augmented”. The “NO release of KO neutrophils” value in series [7] (Met KO circulating neutrophils with LLC) is recorded as “not”. Moreover, the “NO release of WT neutrophils” value in series [7] (WT circulating neutrophils with LLC) is listed as “augmented”.

(Values after patent US20150258194A1, “MODULATING TRANSENDOTHELIAL MIGRATION AND RECRUITMENT OF GRANULOCYTES BY MODULATING C-MET PATHWAY” (VIB VZW, priority 2012, published 2015).)
